In article PMC4068106:

Target: T1, human C-reactive protein (GMP preparation) (human), P02741
T1 chain: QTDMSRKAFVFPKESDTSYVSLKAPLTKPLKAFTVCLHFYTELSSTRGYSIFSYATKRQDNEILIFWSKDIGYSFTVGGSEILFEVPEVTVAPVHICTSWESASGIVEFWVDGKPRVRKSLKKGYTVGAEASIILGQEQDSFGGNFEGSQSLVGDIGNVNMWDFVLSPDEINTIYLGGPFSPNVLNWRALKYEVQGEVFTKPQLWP
Assay: SEC; 0.02 mg in 100 uL on Superdex 200, 0.5 mL/min, 10 mM Tris, 140 mM NaCl, 2 mM CaCl2, pH 8.0; self-assembly of CRP
Conditions: remark: other sources report otherwise

B1: human C-reactive protein (GMP preparation), P02741 19-224 (natural protein)
chain: QTDMSRKAFVFPKESDTSYVSLKAPLTKPLKAFTVCLHFYTELSSTRGYSIFSYATKRQDNEILIFWSKDIGYSFTVGGSEILFEVPEVTVAPVHICTSWESASGIVEFWVDGKPRVRKSLKKGYTVGAEASIILGQEQDSFGGNFEGSQSLVGDIGNVNMWDFVLSPDEINTIYLGGPFSPNVLNWRALKYEVQGEVFTKPQLWP
modifications: here or on the partner: N-terminal PCA; N-terminal PCA
stoichiometry N: 5
